Data: publication PMC4110903 (Methods in enzymology, 2014)

Molecular target: T1, MBP-tagged full length human HSPC300 (human, UniProt Q8WUW1 1-75)
T1 sequence (looked up): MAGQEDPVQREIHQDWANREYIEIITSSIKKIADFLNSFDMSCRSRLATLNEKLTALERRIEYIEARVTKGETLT
Experiment: reconstitution and co-elution on anion exchange chromatography

binding result: binds
B1: MBP-tagged WAVE217: human WAVE1 (1-217)-(GGS)6-(485-559) (domain or fragment)
chain: MPLVKRNIDPRHLCHTALPRGIKNELECVTNISLANIIRQLSSLSKYAEDIFGELFNEAHSFSFRVNSLQERVDRLSVSVTQLDPKEEELSLQDITMRKAFRSSTIQDQQLFDRKTLPIPLQETYDVCEQPPPLNILTPYRDDGKEGLKFYTNPSYFFDLWKEKMLQDTEDKRKEKRKQKQKNLDRPHEPEKVPRAPHDRRREWQKLAQGPELAEDDGGSGGSGGSGGSGGSGGSKRHPSTLPVISDARSVLLEAIRKGIQLRKVEEQREQEAKHERIENDVATILSRRIAVEYSDSEDDSEFDEVDWLE
